Assay [1] has as its target endogenous cofilin (human (endogenous in platelets and HUVEC)) (UniProt P23528). The assay can be described thus: cross-linking; intact endothelial cells (HUVEC, also transfected) in suspension, BMOE or BMH 1 mM or DMSO, 37 °C, one hour; Laemmli lysis, SDS-PAGE, immunoblot.
Assay [2] shares this target. The assay can be described thus: cross-linking; human washed platelets (resting, or stimulated with thrombin, with or without Y27632) lysed in NP-40 lysis buffer with BMOE or BMH (0.2 mM; 0.1 mM BMOE in Figure 7), 20 minutes on ice; immunoblot. For orientation: Immunoblotting shows a protein as a band on a membrane.
Assay [3] deals with recombinant (His)6-tagged human cofilin (human) (UniProt P23528). The assay can be described thus: cross-linking; phosphorylated (by GST-LIMK2) and unphosphorylated His-cofilin (16 μg) cross-linked with 2 and 20 mM BMOE.
Assay [4] shares this target. The assay can be described thus: cross-linking; recombinant His-cofilin 10 µM to 40 µM in PBS pH 7.2, BMOE (two fold molar excess) or DMSO, one hour at room temperature; SDS-PAGE, Coomassie blue; oligomers only at >10 µM.

Values joined by “and” are separate entries in the source; they are usually repeats but may differ in a detail not shown here. Equal values may be shown once.

What is called stoichiometry N is a count of units in the complex or per binding partner.

Take “endogenous cofilin (from UniProt P23528 1-166) (natural protein)”: the stoichiometry N in assay [1] and in assay [2] was 4 in each case.

For the substance “recombinant (His)6-tagged human cofilin (from UniProt P23528 1-166) (natural protein)”, the stoichiometry N is 2 and 3 in assay [3]; 2 and 4 and 5 in assay [4].

The record behind these values is paper PMC3738525.
